Results: paper PMC8318374

Biological target: GFP-CC-tet-KLC1E^CTD (de novo-designed coiled-coil tetramer between GFP and KLC1E^CTD) (mouse)
Test: cross-linking

With “GFP-CC-tet-KLC1E^CTD (de novo-designed coiled-coil tetramer between GFP and KLC1E^CTD)” as the substance, how does the stoichiometry N read?
Its stoichiometry N is 4.
